Assay [1] has as its target T1, Soluble heterodimeric CD3 protein (hCD3-epsilon/hCD3-delta) with either a human Fc tag (hFcΔAdp/hFc) or a … (human, UniProt P07766 23-126; P04234 22-105).
T1 construct: also called hCD3ε/δ; not shown: Fc tag: human (hFcΔAdp/hFc)
In words: SPR Biacore 25C antigen-capture. Put shortly:
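Rate constants fitted to a 1:1 model, giving KD as kd/ka and dissociative half-life as ln2/(60·kd) minutes. Antibodies flowed over CD3ε/δ heterodimer captured on anti-human or anti-mouse Fc surfaces, run on a Biacore T200 at 25 °C.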
In general terms: SPR reads the build-up and loss of mass on a sensor chip optically.

Assay [2] addresses T2, human CD3 expressed on cells (Jurkat cells, a CD3+ human T-cell line; human PBMC T cells) (human, UniProt P07766 23-207; P04234 22-171). In words: cell-based or functional assay.
Assay [3] has as its target T2, human CD3 expressed on cells (Jurkat …). In words: FACS on Jurkat cells. How it is done:
FACS data was acquired using the following protocol: Cells at 2×10⁵ per well were incubated with serially diluted antibodies for 30 min on ice. Post incubation, cells were washed and secondary antibody was added and incubated for an additional 30 minutes. After incubation, cells were washed, re-suspended in cold PBS containing 1% BSA and analyzed by flow cytometry with viable Jurkat cells gated by side and forward scatters. The EC₅₀s for cell binding titration were determined using Prism software with values calculated using a 4-parameter non-linear regression analysis.

T1 sequence (P07766 23-126 limits assumed, stated change not applied, chain 1 of 2): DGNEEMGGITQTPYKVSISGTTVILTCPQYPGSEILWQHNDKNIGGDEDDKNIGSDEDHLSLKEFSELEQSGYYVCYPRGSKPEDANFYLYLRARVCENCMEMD
T1 sequence (P04234 22-105 limits assumed, stated change not applied, chain 2 of 2): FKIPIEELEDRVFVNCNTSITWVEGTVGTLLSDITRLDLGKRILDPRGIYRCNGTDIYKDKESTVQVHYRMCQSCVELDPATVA
T2 sequence (P07766 23-207 limits assumed, chain 1 of 2): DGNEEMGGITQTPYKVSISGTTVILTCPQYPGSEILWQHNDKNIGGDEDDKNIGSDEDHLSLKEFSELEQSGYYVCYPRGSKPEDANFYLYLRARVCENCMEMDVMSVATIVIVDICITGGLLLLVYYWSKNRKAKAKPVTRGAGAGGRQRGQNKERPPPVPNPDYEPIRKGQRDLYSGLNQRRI
T2 sequence (P04234 22-171 limits assumed, chain 2 of 2): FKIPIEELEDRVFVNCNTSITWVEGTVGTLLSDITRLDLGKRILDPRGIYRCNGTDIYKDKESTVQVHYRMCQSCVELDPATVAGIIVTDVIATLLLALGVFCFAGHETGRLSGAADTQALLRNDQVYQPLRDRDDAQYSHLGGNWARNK

B1: H1M2692N (antibody, mouse IgG1, V domains shown)
VH: EVQLVESGGGLVQPGGSLRLSCAASGFSFDDYTMHWVRQPPGKGLEWVSGISWNSGSIGYADSVKGRFTISRDNAKNSLYLQMNSLRAGDTALYYCAKDNSGYGYYYYYGMDVWGQGTTVTVSS
VL: EIVMTQSPATLSVSPGERATLSCRASQSVSSNLAWYQQKPGQAPRLLIYGASTRATGIPARFSGSGSGTEFTLTISSLQSEDFAVYYCQQYYNWPLTFGGGTKVEIK
notes: H1M: mouse IgG1 Fc, human variable regions; divalent
For the molecule B1, in assay [1], binding was characterised by a dissociation constant (Kd) of 238 pM, the “T½” value was 1170 min, the koff is 9.9e-06 s⁻¹ and the kon is 41900 M⁻¹ s⁻¹. For the same molecule, the “EC50 [M] hPBMC Proliferation” value in assay [2] is 1.42e-10 M. Besides, the EC50 in assay [3] amounted to 5990 pM.

B2: H2M2708N (antibody, mouse IgG2, V domains shown)
VH: QVQLVESGGGVVQPGRSLRLSCAASGFTFRSFGMHWVRQAPGRGLEWVAMIYFDGKNKYYADSVRGRFTISRDNSKNTLYLEMSSLRAEDTAVYFCARGPGYNWLDPWGQGTLVTVSS
VL: EIVMTQSPATLSVSPGERVTLSCRASQSISRNLAWYQQKPGQAPRLLIYGASTRATGVPARFSGSGSGTEFTLTISSLQSEDFAVFHCQQYNNRPLTFGGGTEVEIK
notes: H2M: mouse IgG2 Fc, human variable regions; divalent
Consider B2, for which, in assay [1], binding was put at a Kd of 131 pM, the “T½” value came to 51 min, the koff worked out at 0.000227 s⁻¹ and the kon worked out at 1.73e+06 M⁻¹ s⁻¹. The “EC50 [M] hPBMC Proliferation” value in assay [2] turned out to be 2.69e-08 M. In assay [3], this molecule showed an EC50 of 658 pM.

B3: H2M2707N (antibody, mouse IgG2, V domains shown)
VH: QVQLVESGGGVVQPGRSLRLSCIASGFTFRSYGMHWVRQAPGKGLEWVAMIYYDGNNKYYADSVRGRFTISRDNSKNTLYLQMNSLRADDTAVYFCARGPGYNWLDPWGQGTLVTVSS
VL: EIVMTQSPATLSVSPGERATLSCRASQSVSSNLAWYQQKPGQAPRLLIYGASTRATGIPARFSGSGSGTEFTLTISSLQSEDFAVYYCQQYNNRPLTFGGGTKVEIK
notes: as for B2
B3: in assay [1], the Kd was 715 pM, the “T½” value stood at 41 min, the koff was 0.000285 s⁻¹ and the kon came out at 399000 M⁻¹ s⁻¹. In assay [2], the “EC50 [M] hPBMC Proliferation” value was determined as 1.92e-12 M. In assay [3], this molecule gave an EC50 of 124000 pM.

B4: H1M2712N (antibody, mouse IgG1, V domains shown)
VH: EVQLVESGGGLVQPGGSLRLSCAATGFTFDDFTMHWVRQAPGKGLEWVSGISWNSGSIGYVDSVKGRFTISRDNAKNSLYLQMNSLRAEDTALYYCAKDNSGYGYYYYGMDVWGQGTTVTVSS
VL: EIVMTQSPATLSVSPGERATLSCRASHSVSRNSAWYQQKPGQAPRLLIYGASTRATGIPARFSGSGSGTEFTLTISSLQSEDFAIYYCQQYNNWPLTFGGGTKVEIK
notes: H1M: mouse IgG1 Fc; divalent
With B4, in assay [1], binding was put at a Kd of 295 pM, the “T½” value was determined as 846 min, the koff was found to be 1.37e-05 s⁻¹ and the kon is 47500 M⁻¹ s⁻¹. For the same molecule, the “EC50 [M] hPBMC Proliferation” value in assay [2] came out at 1.28e-10 M. In assay [3], this molecule came in with an EC50 of 21900 pM.

B5: H2M2775N (antibody, mouse IgG2, V domains shown)
VH: QVQLVESGGGVVQPGRSLRLSCAASGFTFRSFGMHWVRQAPGRGLEWVAMIYFDGKNKYYADSVRGRFTISRDNSKNTLYLEMSSLRAEDTAVYFCARGPGYNWLDPWGQGTLVTVSS
VL: EIVMTQSPATLSVSPGERVILSCRASQSISRNLAWYQQKPGQAPRLLIYGATTRATGVPARFSGSGSGTEFTLTISSLQSEDFAVFYCQQYNNRPLTFGGGTEVEIK
notes: as for B2
In the case of B5, in assay [1], binding was put at a Kd of 138 pM, the “T½” value stood at 53 min, the koff turned out to be 0.000216 s⁻¹ and the kon amounted to 1.56e+06 M⁻¹ s⁻¹. Besides, in assay [2], the “EC50 [M] hPBMC Proliferation” value is 1.09e-09 M. This molecule gave an EC50 in assay [3] of 1320 pM.

B6: H2M2706N (antibody, mouse IgG2, V domains shown)
VH: QVQLVESGGGVVQPGRSLRLSCAASGFTFRSYAMHWVRQAPGKGLEWVAMVYYDGNNQYYADSVRGRFTISRDNSKNTLYLQMNSLRADDTAVYFCARGPGYNWLDPWGQGTLVTVSS
VL: EIVMTQSPATLSVSPGERATLSCRASQSVSRNLAWYQQKPGQAPRLLIYGASTRATGIPARFSGSGSGTDFTLTISSLQSEDFAVYYCQQYNNWPLTFGGGTKVVIK
notes: as for B2
For the molecule B6, in assay [1], binding was characterised by a dissociation constant (Kd) of 544 pM, the “T½” value was determined as 38 min, the koff stood at 0.000306 s⁻¹ and the kon came to 563000 M⁻¹ s⁻¹. Further, the “EC50 [M] hPBMC Proliferation” value in assay [2] came to 3.86e-12 M. In assay [3], this molecule had an EC50 of 2370 pM.

B7: H2M2774N (antibody, mouse IgG2, V domains shown)
VH: QVQLVESGGGVVQPGRSLRLSCVASGFTFRSYGMHWVRQAPGKGLQWVAMIYYDGKNKYYADSVRGRFTISRDNSKNTLYLQMNSLRAEDTAMYFCARGPGYNWLDPWGQGTLVTVSS
VL: EIVMTQSPATLSVSPGERATLSCRASQRISSNLAWYQQKPGQAPRLLIYGASTRATGSPARFSGSGSGTEFTLTISSLQSEDVAVYYCQQHNNWPLTFGGGTKVEIK
notes: as for B2
With B7, in assay [1], the Kd amounted to 135 pM, the “T½” value amounted to 34 min, the koff amounted to 0.000336 s⁻¹ and the kon was determined as 2.49e+06 M⁻¹ s⁻¹. In addition, the “EC50 [M] hPBMC Proliferation” value in assay [2] was 4.92e-10 M. For the same molecule, in assay [3], the 50% effective concentration (EC50) is 352 pM.

B8: H2M2710N (antibody, V domains shown)
VH: QVQLVESGGGVVQPGRSLRLSCAASGFTFRSFGMHWVRQAPGRGLEWVAMIYFDGKNKYYADSVRGRFTISRDNSKNTLYLEMSSLRAEDTAVYFCARGPGYNWLDPWGQGTLVTVSS
VL: EIVMTQSPATLSVSPGERATLSCRASQSVSRNLAWYQQKPGQAPRLLIYGASTRATGVPARFSGSGSGTEFTLTISSLQSEDFAVFHCQQYNNRPLTFGGGTEVEIK
notes: as for B2
Consider B8, for which, in assay [1], binding was characterised by a dissociation constant (Kd) of 153 pM, the “T½” value was 48 min, the koff was 0.000243 s⁻¹ and the kon stood at 1.59e+06 M⁻¹ s⁻¹. The “EC50 [M] hPBMC Proliferation” value in assay [2] amounted to 2.11e-10 M. In addition, it took 710 pM to reach a half-maximal effect in assay [3] (EC50).

B9: H2M2886N (antibody, mouse IgG2, V domains shown)
VH: QVQLVESGGGVVQPGRSLRLSCAASGFTFRSFGMHWVRQAPGRGLEWVAMIYFDGKNKYYADSVRGRFTISRDNSKNTLYLEMSSLRAEDTAVYFCARGPGYNWLDPWGQGTLVTVSS
VL: EIVMTQSPATLSVSPGERVILSCRASQSISRNLAWYQQKPGQAPRLLIYGATTRATGVPARFSGSGSGTEFTLTISSLQSEDFAVFYCQQYNNRPLTFGGGTEVEIK
notes: as for B2
As to B9, in assay [1], the Kd stood at 95.6 pM, the “T½” value was 85 min, the koff came out at 0.000136 s⁻¹ and the kon is 1.42e+06 M⁻¹ s⁻¹. Also, in assay [2], the “EC50 [M] hPBMC Proliferation” value was 2.69e-12 M. The EC50 in assay [3] is 3970 pM.

B10: H2M2711N (antibody, V domains shown)
VH: QVQLVESGGGVVQPGRSLRLSCAASGFTFRSFGMHWVRQAPGRGLEWVAMIYFDGKNKYYADSVRGRFTISRDNSKNTLYLEMSSLRAEDTAVYFCARGPGYNWLDPWGQGTLVTVSS
VL: EIVMTQSPATLSVSPGERATLSCRASQSVSRNLAWYQQKPGQAPRLLIYGASTRATGVPARFSGSGSGTEFTLTISSLQSEDFAVFHCQQYNNRPLTFGGGTEVEIK
notes: as for B2
B10: in assay [1], the Kd was determined as 151 pM, the “T½” value was found to be 48 min, the koff was found to be 0.00024 s⁻¹ and the association rate constant (kon) was determined as 1.59e+06 M⁻¹ s⁻¹. Moreover, in assay [2], the “EC50 [M] hPBMC Proliferation” value came out at 6.48e-10 M. The molecule also returned an EC50 in assay [3] of 1160 pM.

B11: H2M2885N (antibody, mouse IgG2, V domains shown)
VH: QVQLVESGGGVVQPGRSLRLSCAASGFTFRSFGMHWVRQAPGRGLEWVAMIYFDGKNKYYADSVRGRFTISRDNSKNTLYLEMSSLRAEDTAVYFCARGPGYNWLDPWGQGTLVTVSS
VL: EIVMTQSPATLSVSPGERVILSCRASQSISRNLAWYQQKPGQAPRLLIYGATTRATGVPARFSGSGSGTEFTLTISSLQSEDFAVFYCQQYNNRPLTFGGGTEVEIK
notes: as for B2
Take B11: in assay [1], the Kd turned out to be 111 pM, the “T½” value worked out at 76 min, the koff is 0.000152 s⁻¹ and the kon turned out to be 1.37e+06 M⁻¹ s⁻¹. Further, the “EC50 [M] hPBMC Proliferation” value in assay [2] amounted to 2.49e-12 M. Further, the EC50 in assay [3] stood at 2090 pM.

What is called Kd is a measure of binding affinity in units of concentration. For orientation: koff means the rate constant with which the complex falls apart. High values mean fast dissociation, low ones slow dissociation. The kon is the second-order rate constant of association. A higher kon goes with fast association. For orientation: EC50 means the concentration at which the effect is half-maximal. Low readings indicate an effect from little substance, high ones a need for much substance.

Values taken from patent US20190127480A1 (Regeneron, published 2019).
